Two substances from doi:10.1101/203372 can be followed below.

This experiment addresses HDAC6-EGFP WT (full-length human histone deacetylase 6 fused to EGFP) (human) (UniProt Q9UBN7). The experiment in a line: MST.

Sequence of HDAC6-EGFP WT (full-length human histone deacetylase 6 fused to EGFP) (human) (Q9UBN7 whole entry, the tested form may be a part): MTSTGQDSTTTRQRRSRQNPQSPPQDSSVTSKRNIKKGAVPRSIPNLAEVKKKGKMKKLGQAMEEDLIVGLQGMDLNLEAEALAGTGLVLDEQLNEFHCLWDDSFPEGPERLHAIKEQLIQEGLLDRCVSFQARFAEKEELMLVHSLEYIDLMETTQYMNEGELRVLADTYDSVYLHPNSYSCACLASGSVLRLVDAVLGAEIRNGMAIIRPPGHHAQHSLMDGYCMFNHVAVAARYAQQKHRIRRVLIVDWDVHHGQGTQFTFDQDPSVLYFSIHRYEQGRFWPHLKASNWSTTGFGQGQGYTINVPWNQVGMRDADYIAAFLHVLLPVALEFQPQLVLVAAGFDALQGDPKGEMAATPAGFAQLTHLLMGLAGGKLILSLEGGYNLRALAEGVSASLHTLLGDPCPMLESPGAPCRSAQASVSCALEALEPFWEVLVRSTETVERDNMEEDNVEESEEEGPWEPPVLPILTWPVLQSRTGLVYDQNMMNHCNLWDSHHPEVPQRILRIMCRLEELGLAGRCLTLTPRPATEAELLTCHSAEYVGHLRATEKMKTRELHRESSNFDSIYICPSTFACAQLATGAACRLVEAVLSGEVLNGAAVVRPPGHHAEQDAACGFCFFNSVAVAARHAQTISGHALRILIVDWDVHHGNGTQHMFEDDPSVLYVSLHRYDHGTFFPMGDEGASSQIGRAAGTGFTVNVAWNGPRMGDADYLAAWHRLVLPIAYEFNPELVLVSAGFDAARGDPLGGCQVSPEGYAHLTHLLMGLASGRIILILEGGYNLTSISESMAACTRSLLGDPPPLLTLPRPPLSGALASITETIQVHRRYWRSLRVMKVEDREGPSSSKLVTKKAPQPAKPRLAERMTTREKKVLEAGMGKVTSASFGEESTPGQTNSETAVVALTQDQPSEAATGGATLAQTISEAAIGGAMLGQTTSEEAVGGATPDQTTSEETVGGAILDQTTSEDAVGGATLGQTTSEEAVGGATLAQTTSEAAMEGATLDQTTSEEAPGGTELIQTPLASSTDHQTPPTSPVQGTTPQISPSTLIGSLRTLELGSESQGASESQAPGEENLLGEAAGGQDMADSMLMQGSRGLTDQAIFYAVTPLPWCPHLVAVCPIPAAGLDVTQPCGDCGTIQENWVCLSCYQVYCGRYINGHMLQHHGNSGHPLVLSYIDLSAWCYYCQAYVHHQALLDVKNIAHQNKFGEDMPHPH
Sequence of NEDD8, human, recombinant, His-tag (Q15843 1-76): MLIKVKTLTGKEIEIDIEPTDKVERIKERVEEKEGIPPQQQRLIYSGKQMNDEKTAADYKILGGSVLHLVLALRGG

On to “K63-linked tetra-Ub (from UniProt P0CG48)”, for which the fold higher affinity than mono-Ub stood at 4 fold.

Substance “NEDD8, human, recombinant, His-tag (from UniProt Q15843 1-76) (natural protein)” gave a fold lower affinity than mono-Ub of 50 fold.
